Data reported in patent US12083134B2, “Anacardic acid for neural repair” (Vanderbilt University, priority 2018, dated 2024).

What was measured:
[1] = tested on: MBP in OPCs; assay: Western blot of MBP expression in OPC cultures treated with IL-33; assay type: cell-based, rat; settings: OPCs treated with IL-33
Text: (§1) FIG. 7A provides Western blot analysis of MPB expression in OPC cultures treated with IL-33. FIG. 7B provides qRT-PCR analysis showing the gene expression of transcription elements that bind to the MPB promoter region and major myelin genes treated with IL-33. T3 is the thyroid hormone internal positive control.
(§2) The importance of IL-33 as an inducer of a number of myelin genes has been shown. […] The expression of MBP, myelin oligodendrocyte glycoprotein (Mog), and proteolipoprotien (Plp) along with mRNAs of Purα, Sox10, and Sp-1 in OPCs cultured with IL-33 was quantified. Purα, Sox10, and Sp-1 are transcription elements that bind to the promoter region of MBP to initiate MBP gene expression.

[2] = tested on: MBP, Mog, Plp, Purα, Sox10, Sp-1 in OPCs; assay: qRT-PCR of myelin genes and MBP promoter transcription elements in OPCs cultured with IL-33; assay type: cell-based, rat
Text: as §1, §2

[3] = tested on: OPCs; assay: Maturation of OPCs cultured with IL-33 (O4 and MBP expressing cells); assay type: cell-based, rat
Text: The graphs to the right show the quantitation of O4 and MBP.
The formation of CNS myelin is dependent on the differentiation and maturation of OPCs. The process of maturation is well recognized both in vitro and in vivo. Immature OPCs express the receptor for platelet derived growth factor (PDGFR) and also express proteins that are recognized by antibody A2B5, anti O4, and anti Olig2 antibodies. As oligodendrocytes mature they lose their reactivity to A2B5, PDGFR, and Olig 2 and they begin to express myelin proteins including MBP. The degree of maturation can be assessed by determining the percentage of cells expressing early lineage markers such as O4 and the later markers such as MBP. The expression of O4 and MBP in OPCs cultured for 4 and 14 days in the presence or absence of IL-33 was determined. […] The increase seen with IL-33 was similar to that seen with AA.

[4] = tested on: dorsal root ganglia-OPC co-cultures; assay: In vitro myelination of axons in dorsal root ganglia-OPC co-cultures with IL-33; assay type: cell-based; settings: DRG-OPC co-cultures, rat rIL-33 10 ng/ml, 16 days
Protocol: FIG. 9 provides images showing the myelination of dorsal root ganglion axons. The arrows point to the longer segments of myelinated internodes in cultures with added IL-33 (20×).
In preliminary studies, in vitro myelination of axons in the presence of IL-33 using dorsal root ganglia-OPC co-cultures was examined. Dorsal root ganglions (DRGs) were dissected from postnatal day 2 (P2) rat pups and cultured by established methods. Once the OPCs attached to the plates, they were treated with rat rIL-33 (10 ng/ml) for 16 days. At the end of the experiment, cells were stained with tubulin β for axons and MBP for myelin forming oligodendrocytes. Quantitation of myelin in axons was done using image analysis and the amount of myelin around the axons was determined. […] When compared to vehicle treated controls, there was an 18% increase in MBP in cultures treated with IL-33.

B1: IL-33: recombinant cytokine IL-33 (rat rIL-33) added exogenously to OPC cultures (protein, UniProt Q66H70 1-264, looked up)
Interleukin-33: MRPRMKYSNSKISPAKCDSTSGRALVPPCKITRSQQKTKDICHVYCMRLRSGLTIRKETCYFGKEPAKRYSLKSGSKHEGRLSTCLPDSRKRSLLGSIQAFAASVDTLSIQGTSLLTESCALSTYNDQSVSFVLENGCYVINVEDCGKNQEKDKVLLRYYESSFPAQSGDGVDGKKLMVNMSPIKDTDIWLNANDKDYSVELQKGDVSPPDQAFFVLHKKSSDFVSFECKNLPGTYIGVKDNQLALVEENDESCNNIMFKLSKM
[1]
  induction of MBP: 26%
[2]
  induced expression of MBP: 4.5 fold
  induced expression of Mog: 3.8 fold
  induced expression of PLP: 2.3 fold
  induced expression of Purα: 2.1 fold
  induced expression of Sox10: 3.9 fold
  induced expression of Sp1: 2.2 fold
[3]; OPCs cultured with IL-33, 4 days
  increase in O4 expressing cells vs normal growth medium: 2.3 fold
[3]; OPCs cultured with IL-33, 14 days
  formation of mature oligodendrocytes expressing MBP: increased formation of mature oligodendrocytes
[4]
  increase in MBP vs vehicle treated controls: 18%
